What was measured:
[1] = Determination of self-association property by size exclusion chromatography (Superdex 75); type: physicochemical
Experimental: The molecular homogeneity was measured by Symmetry factor Fs. Fs=W0.05h/2A, wherein, W0.05 is the band width at 0.05 peak height and A is the width of the first half peak at 0.05 peak height. The change of average molecular weight was measured by plotting the distribution coefficient Kav vs. protein concentration. Kav=(Vr−V0)/(Vc−Vo), wherein Vr is the retention volume, Vo the void volume and Vc the total bed volume.

[2] = target: Lyspro (B28Lys, B29Pro insulin) (UniProt P01308); assay: self-association by size exclusion chromatography, Superdex 75, PBS pH 7.4, 80 umol/l protein

Row | Substance | retention time on Superdex 75 column versus protein concentration ([1]; PBS pH7.4, 40-600 μmol/L) | Kav value versus protein concentration ([1]; PBS pH7.4, increasing concentration) | Fs value (symmetry factor, peak shape) versus protein concentration ([1]; PBS pH7.4, insulin: at concentrations above 400 umol/L) | Kav [2]
1 | zinc free insulin: zinc free porcine insulin used as control in size exclusion chromatography | decreased with increasing concentration | decreased with increasing concentration | increased markedly | 
2 | Lyspro (B28Lys, B29Pro insulin) (from UniProt P01308 25-110; P01308 25-110) |  |  |  | 0.48
